Test results taken from IntAct's records for PubMed 23460737.

B1: Protein THEMIS (Mus musculus), Q8BGW0 (parent)
chain: MALSLEEFVYSLDLRTLPRVLEIQSGIYFEGSVYEMFGNECCLSTGEVIKITGLKIKKMMAEICEGAIGGCESQKPFELPMNFPGLFKVMADKTPYLSIEEITRTVNIGPSRLGHPCFYHLKDIKLENLIIKQGEPIRFNSVEEINGETLVNCGVVRNHQSHSFTLPLSQEGEFYECEDEHIYTLKEIVEWKIPKNRTRTVKLTDFSNKWDSTNPFPEDFYGTLILKPVYEIQGVLKFQKDIVRILPSLDVEVKDITDSYDANWFLQLLSTDDLFEMTSKEFPVVAEVVEISQGNHLPQSILQREKTIVIHKKYQASRILASEIRSNFPKRHFLIPISYKGKFKRRPREFPTAYDLQIAKSRKETLHVVATKAFHTLHKELSPVSVGDQFLVHHSETTEVVFEGTRKVNVLTCEKVLNKTREDAQLPLYMEGGFVEVIHDKKQYQISELCTQFCWPFNVKVAVRDLSIKDDILAATPGLQLEEDITDSYLLISDFANPEECWEIPMSRLNMTVRLVNGSSLPADAGLLQVRSFVEEITEEQYYMMRRYESSLSHPPPRPPKHPSAEEMKLTLLSLAEERTINLPKSLKSHHVDRPKKLPSDESGQDSRAPVGFQNDVADVERQKSKHGPLQPQAPL
B2: Protein THEMIS (Homo sapiens), Q8N1K5-1 (parent)
chain: MALSLEEFVHSLDLRTLPRVLEIQAGIYLEGSIYEMFGNECCFSTGEVIKITGLKVKKIIAEICEQIEGCESLQPFELPMNFPGLFKIVADKTPYLTMEEITRTIHIGPSRLGHPCFYHQKDIKLENLIIKQGEQIMLNSVEEIDGEIMVSCAVARNHQTHSFNLPLSQEGEFYECEDERIYTLKEIVEWKIPKNRTRTVNLTDFSNKWDSTNPFPKDFYGTLILKPVYEIQGVMKFRKDIIRILPSLDVEVKDITDSYDANWFLQLLSTEDLFEMTSKEFPIVTEVIEAPEGNHLPQSILQPGKTIVIHKKYQASRILASEIRSNFPKRHFLIPTSYKGKFKRRPREFPTAYDLEIAKSEKEPLHVVATKAFHSPHDKLSSVSVGDQFLVHQSETTEVLCEGIKKVVNVLACEKILKKSYEAALLPLYMEGGFVEVIHDKKQYPISELCKQFRLPFNVKVSVRDLSIEEDVLAATPGLQLEEDITDSYLLISDFANPTECWEIPVGRLNMTVQLVSNFSRDAEPFLVRTLVEEITEEQYYMMRRYESSASHPPPRPPKHPSVEETKLTLLTLAEERTVDLPKSPKRHHVDITKKLHPNQAGLDSKVLIGSQNDLVDEEKERSNRGATAIAETFKNEKHQK
B3: Protein THEMIS (Homo sapiens), Q8N1K5-1 (parent)
chain: B2 chain
partner: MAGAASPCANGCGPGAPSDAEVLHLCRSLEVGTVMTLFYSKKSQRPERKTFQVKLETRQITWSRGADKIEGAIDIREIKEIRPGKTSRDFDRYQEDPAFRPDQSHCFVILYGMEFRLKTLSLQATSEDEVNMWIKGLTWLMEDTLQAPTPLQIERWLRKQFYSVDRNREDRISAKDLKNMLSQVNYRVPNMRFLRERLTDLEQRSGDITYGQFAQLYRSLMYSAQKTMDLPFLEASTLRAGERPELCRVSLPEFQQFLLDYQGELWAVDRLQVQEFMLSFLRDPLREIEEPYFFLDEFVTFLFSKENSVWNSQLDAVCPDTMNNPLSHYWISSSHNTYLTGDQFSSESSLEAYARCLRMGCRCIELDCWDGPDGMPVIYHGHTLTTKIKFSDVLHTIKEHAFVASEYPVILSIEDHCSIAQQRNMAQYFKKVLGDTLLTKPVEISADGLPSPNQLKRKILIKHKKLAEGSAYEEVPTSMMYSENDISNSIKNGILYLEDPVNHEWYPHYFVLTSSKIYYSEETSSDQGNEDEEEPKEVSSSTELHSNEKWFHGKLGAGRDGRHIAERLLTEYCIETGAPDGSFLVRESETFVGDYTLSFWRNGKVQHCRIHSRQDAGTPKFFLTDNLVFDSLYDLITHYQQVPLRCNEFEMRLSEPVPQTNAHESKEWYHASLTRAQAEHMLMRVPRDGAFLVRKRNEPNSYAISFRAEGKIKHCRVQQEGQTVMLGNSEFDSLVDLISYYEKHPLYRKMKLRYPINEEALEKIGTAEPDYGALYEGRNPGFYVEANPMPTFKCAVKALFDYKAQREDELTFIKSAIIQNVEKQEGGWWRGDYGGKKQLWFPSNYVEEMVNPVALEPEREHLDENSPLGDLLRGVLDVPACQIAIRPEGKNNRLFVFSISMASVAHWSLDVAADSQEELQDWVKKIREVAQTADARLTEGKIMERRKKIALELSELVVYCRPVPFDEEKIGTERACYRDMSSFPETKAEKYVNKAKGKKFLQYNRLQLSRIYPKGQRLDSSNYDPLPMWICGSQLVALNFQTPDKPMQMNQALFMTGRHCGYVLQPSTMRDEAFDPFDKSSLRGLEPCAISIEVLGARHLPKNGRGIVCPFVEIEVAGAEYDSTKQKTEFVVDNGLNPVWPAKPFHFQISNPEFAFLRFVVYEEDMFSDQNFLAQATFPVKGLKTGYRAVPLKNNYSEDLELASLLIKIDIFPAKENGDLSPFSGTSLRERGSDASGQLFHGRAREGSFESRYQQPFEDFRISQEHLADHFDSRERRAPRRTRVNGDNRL

Variants of: B1
Details: with grb2_human GRB2, P62993

Row | effect of a mutation on the interaction | Variant
1 | disrupting interaction strength | P557A;P560A

Variants of: B2
Details: with grb2_human GRB2, P62993

Row | effect of a mutation on the interaction | Variant
2 | disrupting interaction strength | K559A
3 | disrupting interaction strength | R556A
4 | disrupting interaction strength | P554A
5 | disrupting interaction strength | P557A

Variants of: B2
Details: with grb2_human GRB2, P62993
Remark: another data set of the same source

Row | effect of a mutation on the interaction | Variant
6 | with no effect | P582A;P585A
7 | disrupting interaction strength | P555A;P558A

Variants of: B2
Details: with grb2_human GRB2, P62993
Remark: another data set of the same source

Row | effect of a mutation on the interaction | Variant
8 | with no effect | Y540A;Y541A
9 | with no effect | Y540F;Y541F

Variants of: B2
Details: with grb2_human GRB2, P62993
Remark: another data set of the same source

Row | effect of a mutation on the interaction | Variant
10 | disrupting interaction strength | Y540F;Y541F

Variants of: B2
Details: with grb2_human GRB2, P62993
Remark: another data set of the same source

Row | effect of a mutation on the interaction | Variant
11 | disrupting interaction strength | P555A;P558A

Variants of: B3
Details: with plcg1_human PLCG1, P19174

Row | effect of a mutation on the interaction | Variant
12 | decreasing interaction strength | P555A;P558A
